Results as given in patent publication US20090099029A1, “Methods and substrates for conducting assays” (Invitrogen Corporation, priority 2005, published 2009).

Test system: kinases of Table 6 on Myelin Basic Protein (MBP)
Assay: Kinase assay using MBP substrate, ProQ Diamond stain (Table 6)
Type: biochemical
Details: kinase printed on MBP-coated slide; 20 uM ATP, 30° C.; ProQ Diamond Microarray Stain; graded Strong/Weak/Negative
Experimental: In this illustrative example, four-well slides were designed with a hydrophobic mask surrounding 4-wells of aldehyde- or epoxy-coated glass (smooth or ES grade; Erie Scientific (Portsmouth, N.H.)). […] Bovine, dephosphorylated, Myelin Basic Protein (MBP) was purchased from Upstate Biotechnology (#13-110). MBP was diluted to 1 mg/ml in PBS, applied to the slide surface, covered with a coverslip, and left overnight at 4° C. to coat the slide with the MBP. Slides were washed 3 times with water and spun dry before printing.
Kinases were purchased from Panvera (Invitrogen, Carlsbad, Calif.), diluted in printing buffer (50 mM Tris pH 7.5, 25% glyercol, 0.05% TritonX-100, 2 mM DTT) and deposited using a GeneMachine OmniGrid100. Slides were stored at −20° C.
Reactions were performed following removal of the slide from the freezer. Reaction buffer (20 mM HEPES pH 7.5, 4 mM MgCl2, 2 mM DTT, 20 uM ATP, 5% DMSO) was added with or without inhibitor, a coverslip applied, and the slide placed at 30° C. for the appropriate reaction time. The slide was washed with water to stop the reaction (3 times) and spun dry. ProQ Diamond Microarray Stain (Invitrogen #P33706) was applied, covered with a coverslip, and the slide was incubated in the dark at room temperature for 30 minutes. The slide was destained and washed three times with water, and spun dry.

Row | Molecule | MBP Kinase Activity
1 | MAP3K11(MLK3) (protein, left off: a dimerising Fc or GST) MEPLKSLFLKSPLGSWNGSGSGGGGGGGGGRPEGSPKAAGYANPVWTALFDYEPSGQDELALRKGDRVEVLSRDAAISGDEGWWAGQVGGQVGIFPSNYVSRGGGPPPCEVASFQELRLEEVIGIGGFGKVYRGSWRGELVAVKAARQDPDEDISVTAESVRQEARLFAMLAHPNIIALKAVCLEEPNLCLVMEYAAGGPLSRALAGRRVPPHVLVNWAVQIARGMHYLHCEALVPVIHRDLKSNNILLLQPIESDDMEHKTLKITDFGLAREWHKTTQMSAAGTYAWMAPEVIKASTFSKGSDVWSFGVLLWELLTGEVPYRGIDCLAVAYGVAVNKLTLPIPSTCPEPFAQLMADCWAQDPHRRPDFASILQQLEALEAQVLREMPRDSFHSMQEGWKREIQGLFDELRAKEKELLSREEELTRAAREQRSQAEQLRRREHLLAQWELEVFERELTLLLQQVDRERPHVRRRRGTFKRSKLRARDGGERISMPLDFKHRITVQASPGLDRRRNVFEVGPGDSPTFPRFRAIQLEPAEPGQAWGRQSPRRLEDSSNGERRACWAWGPSSPKPGEAQNGRRRSRMDEATWYLDSDDSSPLGSPSTPPALNGNPPRPSLEPEEPKRPVPAERGSSSGTPKLIQRALLRGTALLASLGLGRDLQPPGGPGRERGESPTTPPTPTPAPCPTEPPPSPLICFSLKTPDSPPTPAPLLLDLGIPVGQRSAKSPRREEEPRGGTVSPPPGTSRSAPGTPGTPRSPPLGLISRPRPSPLRSRIDPWSFVSAGPRPSPLPSPQPAPRRAPWTLFPDSDPFWDSPPANPFQGGPQDCRAQTKDMGAQAPWVPEAGP | Negative
2 | MAPK12(p38gamma) (protein, left off: small tags and cut ends) MSSPPPARSGFYRQEVTKTAWEVRAVYRDLQPVGSGAYGAVCSAVDGRTGAKVAIKKLYRPFQSELFAKRAYRELRLLKHMRHENVIGLLDVFTPDETLDDFTDFYLVMPFMGTDLGKLMKHEKLGEDRIQFLVYQMLKGLRYIHAAGIIHRDLKPGNLAVNEDCELKILDFGLARQADSEMTGYVVTRWYRAPEVILNWMRYTQTVDIWSVGCIMAEMITGKTLFKGSDHLDQLKEIMKVTGTPPAEFVQRLQSDEAKNYMKGLPELEKKDFASILTNASPLAVNLLEKMLVLDAEQRVTAGEALAHPYFESLHDTEDEPQVQKYDDSFDDVDRTLDEWKRVTYKEVLSFKPPRQLGARVSKETPL | Strong
3 | MAP4K4(HGK) (protein, left off: a dimerising Fc or GST) MANDSPAKSLVDIDLSSLRDPAGIFELVEVVGNGTYGQVYKGRHVKTGQLAAIKVMDVTEDEEEEIKLEINMLKKYSHHRNIATYYGAFIKKSPPGHDDQLWLVMEFCGAGSITDLVKNTKGNTLKEDWIAYISREILRGLAHLHIHHVIHRDIKGQNVLLTENAEVKLVDFGVSAQLDRTVGRRNTFIGTPYWMAPEVIACDENPDATYDYRSDLWSCGITAIEMAEGAPPLCDMHPMRALFLIPRNPPPRLKSKKWSKKFFSFIEGCLVKNYMQRPSTEQLLKHPFIRDQPNERQVRIQLKDHIDRTRKKRGEKDETEYEYSGSEE | Strong
4 | MAP3K5(ASK1) (protein, left off: a dimerising Fc or GST) MSTEADEGITFSVPPFAPSGFCTIPEGGICRRGGAAAVGEGEEHQLPPPPPGSFWNVESAAAPGIGCPAATSSSSATRGRGSSVGGGSRRTTVAYVINEASQGQLVVAESEALQSLREACETVGATLETLHFGKLDFGETTVLDRFYNADIAVVEMSDAFRQPSLFYHLGVRESFSMANNIILYCDTNSDSLQSLKEIICQKNTMCTGNYTFVPYMITPHNKVYCCDSSFMKGLTELMQPNFELLLGPICLPLVDRFIQLLKVAQASSSQYFRESILNDIRKARNLYTGKELAAELARIRQRVDNIEVLTADIVINLLLSYRDIQDYDSIVKLVETLEKLPTFDLASHHHVKFHYAFALNRRNLPGDRAKALDIMIPMVQSEGQVASDMYCLVGRIYKDMFLDSNFTDTESRDHGASWFKKAFESEPTLQSGINYAVLLLAAGHQFESSFELRKVGVKLSSLLGKKGNLEKLQSYWEVGFFLGASVLANDHMRVIQASEKLFKLKTPAWYLKSIVETILIYKHFVKLTTEQPVAKQELVDFWMDFLVEATKTDVTVVRFPVLILEPTKIYQPSYLSINNEVEEKTISIWHVLPDDKKGIHEWNFSASSVRGVSISKFEERCCFLYVLHNSDDFQIYFCTELHCKKFFEMVNTITEEKGRSTEEGDCESDLLEYDYEYDENGDRVVLGKGTYGIVYAGRDLSNQVRIAIKEIPERDSRYSQPLHEEIALHKHLKHKNIVQYLGSFSENGFIKIFMEQVPGGSLSALLRSKWGPLKDNEQTIGFYTKQILEGLKYLHDNQIVHRDIKGDNVLINTYSGVLKISDFGTSKRLAGINPCTETFTGTLQYMAPEIIDKGPRGYGKAADIWSLGCTIIEMATGKPPFYELGEPQAAMFKVGMFKVHPEIPESMSAEAKAFILKCFEPDPDKRACANDLLVDEFLKVSSKKKKTQPKLSALSAGSNEYLRSISLPVPVLVEDTSSSSEYGSVSPDTELKVDPFSFKTRAKSCGERDVKGIRTLFLGIPDENFEDHSAPPSPEEKDSGFFMLRKDSERRATLHRILTEDQDKIVRNLMESLAQGAEEPKLKWEHITTLIASLREFVRSTDRKIIATTLSKLKLELDFDSHGISQVQVVLFGFQDAVNKVLRNHNIKPHWMFALDSIIRKAVQTAITILVPELRPHFSLASESDTADQEDLDVEDDHEEQPSNQTVRRPQAVIEDAVATSGVSTLSSTVSHDSQSAHRSLNVQLGRMKIETNRLLEELVRKEKELQALLHRAIEEKDQEIKHLKLKSQPIEIPELPVFHLNSSGTNTEDSELTDWLRVNGADEDTISRFLAEDYTLLDVLYYVTRDDLKCLRLRGGMLCTLWKAIIDFRNKQT | Weak
5 | MAP3K9(MLK1) (protein, left off: a dimerising Fc or GST) MEPSRALLGCLASAAAAAPPGEDGAGAGAEEEEEEEEEAAAAVGPGELGCDAPLPYWTAVFEYEAAGEDELTLRLGDVVEVLSKDSQVSGDEGWWTGQLNQRVGIFPSNYVTPRSAFSSRCQPGGEDPSCYPPIQLLEIDFAELTLEEIIGIGGFGKVYRAFWIGDEVAVKAARHDPDEDISQTIENVRQEAKLFAMLKHPNIIALRGVCLKEPNLCLVMEFARGGPLNRVLSGKRIPPDILVNWAVQIARGMNYLHDEAIVPIIHRDLKSSNILILQKVENGDLSNKILKITDFGLAREWHRTTKMSAAGTYAWMAPEVIRASMFSKGSDVWSYGVLLWELLTGEVPFRGIDGLAVAYGVAMNKLALPIPSTCPEPFAKLMEDCWNPDPHSRPSFTNILDQLTTIEESGFFEMPKDSFHCLQDNWKHEIQEMFDQLRAKEKELRTWEEELTRAALQQKNQEELLRRREQELAEREIDILERELNIIIHQLCQEKPRVKK | Strong
6 | MAP3K2(MEKK2) (protein, left off: a dimerising Fc or GST) MDDQQALNSIMQDLAVLHKASRPALSLQETRKAKSSSPKKQNDVRVKFEHRGEKRILQFPRPVKLEDLRSKAKIAFGQSMDLHYTNNELVIPLTTQDDLDKAVELLDRSIHMKSLKILLVINGSTQATNLEPLPSLEDLDNTVFGAERKKRLSIIGPTSRDRSSPPPGYIPDELHQVARNGSFTSINSEGEFIPESMDQMLDPLSLSSPENSGSGSCPSLDSPLDGESYPKSRMPRAQSYPDNHQEFSDYDNPIFEKFGKGGTYPRRYHVSYHHQEYNDGRKTFPRARRTQGTSLRSPVSFSPTDHSLSTSSGSSIFTPEYDDSRIRRRGSDIDNPTLTVMDISPPSRSPRAPTNWRLGKLLGQGAFGRVYLCYDVDTGRELAVKQVQFDPDSPETSKEVNALECEIQLLKNLLHERIVQYYGCLRDPQEKTLSIFMEYMPGGSIKDQLKAYGALTENVTRKYTRQILEGVHYLHSNMIVHRDIKGANILRDSTGNVKLGDFGASKRLQTICLSGTGMKSVTGTPYWMSPEVISGEGYGRKADIWSVACTVVEMLTEKPPWAEFEAMAAIFKIATQPTNPKLPPHVSDYTRDFLKRIFVEAKLRPSADELLRHMFVHYH | Weak
7 | MAPK11(p38B) (protein, left off: small tags and cut ends) MSGPRAGFYRQELNKTVWEVPQRLQGLRPVGSGAYGSVCSAYDARLRQKVAVKKLSRPFQSLIHARRTYRELRLLKHLKHENVIGLLDVFTPATSIEDFSEVYLVTTLMGADLNNIVKCQALSDEHVQFLVYQLLRGLKYIHSAGIIHRDLKPSNVAVNEDCELRILDFGLARQADEEMTGYVATRWYRAPEIMLNWMHYNQTVDIWSVGCIMAELLQGKALFPGSDYIDQLKRIMEVVGTPSPEVLAKISSEHARTYIQSLPPMPQKDLSSIFRGANPLAIDLLGRMLVLDSDQRVSAAEALAHAYFSQYHDPEDEPEAEPYDESVEAKERTLEEWKELTYQEVLSFKPPEPPKPPGSLEIEQ | Strong
8 | EPHA4 (protein, left off: a dimerising Fc or GST) SRRRSKYSKAKQEADEEKHLNQGVRTYVDPFTYEDPNQAVREFAKEIDASCIKIEKVIGVGEFGEVCSGRLKVPGKREICVAIKTLKAGYTDKQRRDFLSEASIMGQFDHPNIIHLEGVVTKCKPVMIITEYMENGSLDAFLRKNDGRFTVIQLVGMLRGIGSGMKYLSDMSYVHRDLAARNILVNSNLVCKVSDFGMSRVLEDDPEAAYTTRGGKIPIRWTAPEAIAYRKFTSASDVWSYGIVMWEVMSYGERPYWDMSNQDVIKAIEEGYRLPPPMDCPIALHQLMLDCWQKERSDRPKFGQIVNMLDKLIRNPNSLKRTGTESSRPNTALLDPSSPEFSAVVSVGDWLQAIKMDRYKDNFTAAGYTTLEAVVHVNQEDLARIGITAITHQNKILSSVQAMRTQMQQMHGRMVPV | Strong
